Laboratory results taken from patent US20030215874A1 (published 2003).

B1: bis-ANS treated GRP94 (porcine pancreas GRP94 preincubated with bis-ANS) (other, UniProt Q29092 22-804, looked up)
chain: EDEVDVDGTVEEDLGKSREGSRTDDEVVQREEEAIQLDGLNASQIRELREKSEKFAFQAEVNRMMKLIINSLYKNKEIFLRELISNASDALDKIRLISLTDENALAGNEELTVKIKCDKEKNLLHVTDTGVGMTREELVKNLGTIAKSGTSEFLNKMAEAQEDGQSTSELIGQFGVGFYSAFLVADKVIVTSKHNNDTQHIWESDSNEFSVIADPRGNTLGRGTTITLVLKEEASDYLELDTIKNLVKKYSQFINFPIYVWSSKTETVEEPMEEEEAAKEEKEESDDEAAVEEEEEEKKPKTKKVEKTVWDWELMNDIKPIWQRPSKEVEDDEYKAFYKSFSKESDDPMAYIHFTAEGEVTFKSILFVPTSAPRGLFDEYGSKKSDYIKLYVRRVFITDDFHDMMPKYLNFVKGVVDSDDLPLNVSRETLQQHKLLKVIRKKLVRKTLDMIKKIADEKYNDTFWKEFGTNIKLGVIEDHSNRTRLAKLLRFQSSHHPSDITSLDQYVERMKEKQDKIYFMAGSSRKEAESSPFVERLLKKGYEVIYLTEPVDEYCIQALPEFDGKRFQNVAKEGVKFDESEKSKENREAVEKEFEPLLNWMKDKALKDKIEKAVVSQRLTESPCALVASQYGWSGNMERIMKAQAYQTGKDISTNYYASQKKTFEINPRHPLIRDMLRRVKEDEDDKTVSDLAVVLFETATLRSGYLLPDTKAYGDRIERMLRLSLNIDPDAKVEEEPEEEPEETTEDTTEDTEQDDDEEMDAGADEEEQETSETSTAEKDEL
B2: GRP94 (glucose regulated protein of 94 kDa), native, purified from porcine pancreas (other, UniProt Q29092 22-804, looked up)
chain: EDEVDVDGTVEEDLGKSREGSRTDDEVVQREEEAIQLDGLNASQIRELREKSEKFAFQAEVNRMMKLIINSLYKNKEIFLRELISNASDALDKIRLISLTDENALAGNEELTVKIKCDKEKNLLHVTDTGVGMTREELVKNLGTIAKSGTSEFLNKMAEAQEDGQSTSELIGQFGVGFYSAFLVADKVIVTSKHNNDTQHIWESDSNEFSVIADPRGNTLGRGTTITLVLKEEASDYLELDTIKNLVKKYSQFINFPIYVWSSKTETVEEPMEEEEAAKEEKEESDDEAAVEEEEEEKKPKTKKVEKTVWDWELMNDIKPIWQRPSKEVEDDEYKAFYKSFSKESDDPMAYIHFTAEGEVTFKSILFVPTSAPRGLFDEYGSKKSDYIKLYVRRVFITDDFHDMMPKYLNFVKGVVDSDDLPLNVSRETLQQHKLLKVIRKKLVRKTLDMIKKIADEKYNDTFWKEFGTNIKLGVIEDHSNRTRLAKLLRFQSSHHPSDITSLDQYVERMKEKQDKIYFMAGSSRKEAESSPFVERLLKKGYEVIYLTEPVDEYCIQALPEFDGKRFQNVAKEGVKFDESEKSKENREAVEKEFEPLLNWMKDKALKDKIEKAVVSQRLTESPCALVASQYGWSGNMERIMKAQAYQTGKDISTNYYASQKKTFEINPRHPLIRDMLRRVKEDEDDKTVSDLAVVLFETATLRSGYLLPDTKAYGDRIERMLRLSLNIDPDAKVEEEPEEEPEETTEDTTEDTEQDDDEEMDAGADEEEQETSETSTAEKDEL
notes: also called native GRP94; gp96
B3: heat shocked GRP94 (porcine pancreas GRP94 incubated 15 minutes at 50 C) (other, UniProt Q29092 22-804, looked up)
chain: EDEVDVDGTVEEDLGKSREGSRTDDEVVQREEEAIQLDGLNASQIRELREKSEKFAFQAEVNRMMKLIINSLYKNKEIFLRELISNASDALDKIRLISLTDENALAGNEELTVKIKCDKEKNLLHVTDTGVGMTREELVKNLGTIAKSGTSEFLNKMAEAQEDGQSTSELIGQFGVGFYSAFLVADKVIVTSKHNNDTQHIWESDSNEFSVIADPRGNTLGRGTTITLVLKEEASDYLELDTIKNLVKKYSQFINFPIYVWSSKTETVEEPMEEEEAAKEEKEESDDEAAVEEEEEEKKPKTKKVEKTVWDWELMNDIKPIWQRPSKEVEDDEYKAFYKSFSKESDDPMAYIHFTAEGEVTFKSILFVPTSAPRGLFDEYGSKKSDYIKLYVRRVFITDDFHDMMPKYLNFVKGVVDSDDLPLNVSRETLQQHKLLKVIRKKLVRKTLDMIKKIADEKYNDTFWKEFGTNIKLGVIEDHSNRTRLAKLLRFQSSHHPSDITSLDQYVERMKEKQDKIYFMAGSSRKEAESSPFVERLLKKGYEVIYLTEPVDEYCIQALPEFDGKRFQNVAKEGVKFDESEKSKENREAVEKEFEPLLNWMKDKALKDKIEKAVVSQRLTESPCALVASQYGWSGNMERIMKAQAYQTGKDISTNYYASQKKTFEINPRHPLIRDMLRRVKEDEDDKTVSDLAVVLFETATLRSGYLLPDTKAYGDRIERMLRLSLNIDPDAKVEEEPEEEPEETTEDTTEDTEQDDDEEMDAGADEEEQETSETSTAEKDEL
notes: also called hs GRP94; heat-treated GRP94

Assays:
[1] = target: the molecule itself; test: blue native PAGE (legend of FIG. 4), self-association
[2] = target: the molecule itself; test: blue native PAGE (BN-PAGE), self-association

Row | Protein | binding result [1] | binding result [2]
1 | B1 | binds | 
2 | B2 |  | binds
3 | B3 |  | binds
